In article PMC2629652 (FEBS letters, 2008):
Like-named read-outs stand apart in the source and are kept apart here.

Experiments:
FprA1 = target: T1, FprA1 (Clostridium acetobutylicum, UniProt Q97K92); test: TLC of the flavin cofactor; format: binding; settings: co-purified oxidized flavin, 378 and 450 nm bands
T1 sequence (Q97K92 2-392): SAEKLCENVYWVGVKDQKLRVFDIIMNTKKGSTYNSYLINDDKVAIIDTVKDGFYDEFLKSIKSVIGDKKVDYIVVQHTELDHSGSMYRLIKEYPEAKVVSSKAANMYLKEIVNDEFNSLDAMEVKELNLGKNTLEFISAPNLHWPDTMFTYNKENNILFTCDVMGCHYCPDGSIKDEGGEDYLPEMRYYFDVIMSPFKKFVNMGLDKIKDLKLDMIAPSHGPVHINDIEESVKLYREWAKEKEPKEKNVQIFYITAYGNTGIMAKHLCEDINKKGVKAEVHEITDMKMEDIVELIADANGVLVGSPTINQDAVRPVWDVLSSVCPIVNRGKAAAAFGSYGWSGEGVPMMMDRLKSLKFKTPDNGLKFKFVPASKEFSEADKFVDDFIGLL

SEC [1] = target: the molecule itself; test: SEC
SEC [2] = target: the molecule itself; test: SEC; remark: listed apart in the source

Cc1cc2nc3c(=O)[nH]c(=O)nc-3n(C[C@H](O)[C@H](O)[C@H](O)COP(=O)(O)O)c2cc1C [FMN]
TLC of the flavin cofactor; UV-visible absorption of purified protein (FprA1): TLC analysis identified FMN as the flavin cofactor in both FprA1 and FprA2

B1: C. acetobutylicum flavo-diiron protein FprA2 (enzyme, UniProt Q97GC0 1-400, looked up)
chain: MPAIKIKDNIFSVGVLNPSLRIFDIIMKTEYGTSYNAYLIKGKKNVLIDTVHGRFFDEYLENIKSVIDPSSIDYVIMNHCEPDHSGSLARLYEVAPQIKVIASNAGKIYLKNITNKETLDVKAVKTNDTLDIGNGKVLKFAIAPFLHWPDSMFTILEEDKIAFTCDFLGCHFCEPRMFDTKITYMPKYEKSFKEYYDAIFSPFKPYVVKGLDILDALDLDFIATSHGPILTREGLLAASKQKYRDLSSEIQSTTKYIPIFYCSAYGNTEILANEIASGIKSVLNDANIEMLDIINYDYSDLKEKINICDAFMLGTPTINKDALFPIWELIGGIDAVNCKNKPASAFGSFGWSGEAIPFVISRLKELKLKVFQDGFTCLFVPSEDDIKKAFKFGEDFAKSI
stoichiometry N (SEC [1]): 4
stoichiometry N (SEC [2]): 2

B2: C. acetobutylicum flavo-diiron protein FprA1 (enzyme, UniProt Q97K92 1-392, looked up)
chain: MSAEKLCENVYWVGVKDQKLRVFDIIMNTKKGSTYNSYLINDDKVAIIDTVKDGFYDEFLKSIKSVIGDKKVDYIVVQHTELDHSGSMYRLIKEYPEAKVVSSKAANMYLKEIVNDEFNSLDAMEVKELNLGKNTLEFISAPNLHWPDTMFTYNKENNILFTCDVMGCHYCPDGSIKDEGGEDYLPEMRYYFDVIMSPFKKFVNMGLDKIKDLKLDMIAPSHGPVHINDIEESVKLYREWAKEKEPKEKNVQIFYITAYGNTGIMAKHLCEDINKKGVKAEVHEITDMKMEDIVELIADANGVLVGSPTINQDAVRPVWDVLSSVCPIVNRGKAAAAFGSYGWSGEGVPMMMDRLKSLKFKTPDNGLKFKFVPASKEFSEADKFVDDFIGLL
stoichiometry N (SEC [1]): 2
